Here are results for one substance from patent US20070274969A1.

For assay [1], the target named is rat Bub1, endogenous (rat). As to the kind of experiment: cell-based or functional assay.
For assay [2], the target named is human Bub1, endogenous (human) (UniProt O43683). As to the kind of experiment: cell-based or functional assay.
Chain of human Bub1, endogenous (human) (O43683 whole entry): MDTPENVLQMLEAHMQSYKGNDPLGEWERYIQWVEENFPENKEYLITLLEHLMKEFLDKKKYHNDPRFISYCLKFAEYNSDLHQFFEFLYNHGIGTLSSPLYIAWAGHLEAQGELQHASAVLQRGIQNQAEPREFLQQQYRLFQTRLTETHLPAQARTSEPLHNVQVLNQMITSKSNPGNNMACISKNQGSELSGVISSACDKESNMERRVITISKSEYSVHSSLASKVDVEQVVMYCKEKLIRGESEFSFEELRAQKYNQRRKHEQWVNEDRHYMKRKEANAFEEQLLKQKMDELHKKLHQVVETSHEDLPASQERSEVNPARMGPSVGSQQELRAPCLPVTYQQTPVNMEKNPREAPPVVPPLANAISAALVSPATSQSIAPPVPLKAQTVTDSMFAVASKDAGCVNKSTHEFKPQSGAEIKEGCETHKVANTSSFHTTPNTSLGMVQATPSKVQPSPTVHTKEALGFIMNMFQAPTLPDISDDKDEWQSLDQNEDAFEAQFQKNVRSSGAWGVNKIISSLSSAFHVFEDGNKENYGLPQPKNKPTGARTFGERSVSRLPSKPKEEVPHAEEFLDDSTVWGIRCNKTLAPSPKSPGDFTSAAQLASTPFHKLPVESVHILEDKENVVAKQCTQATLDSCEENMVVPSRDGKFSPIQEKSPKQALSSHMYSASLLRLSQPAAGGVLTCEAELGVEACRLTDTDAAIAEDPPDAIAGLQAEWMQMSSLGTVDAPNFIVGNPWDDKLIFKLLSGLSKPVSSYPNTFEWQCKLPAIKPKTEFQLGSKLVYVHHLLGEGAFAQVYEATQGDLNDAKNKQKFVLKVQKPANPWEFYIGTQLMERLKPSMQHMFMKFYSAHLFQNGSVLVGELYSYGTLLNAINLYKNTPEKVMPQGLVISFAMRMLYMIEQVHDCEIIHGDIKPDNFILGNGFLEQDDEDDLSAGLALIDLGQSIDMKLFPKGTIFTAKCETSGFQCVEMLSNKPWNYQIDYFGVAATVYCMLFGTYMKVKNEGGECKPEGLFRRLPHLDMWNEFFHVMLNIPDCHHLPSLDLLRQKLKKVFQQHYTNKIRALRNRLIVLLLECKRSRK

Take “SV40 large T antigen, wild-type (from UniProt P03070 1-708)”: the cells that proceed to anaphase at 24 ng/ml nocodazole, time-lapse microscopy of immortalized rat embryo fibroblasts in assay [1] stood at 90%. Moreover, in assay [2], the % > 4N cells (endoreduplication), 100 ng/ml nocodazole turned out to be 45.7% and the mitotic index (phospho-histone H3 positive cells), nocodazole for 15 hours was determined as 14.6%.
